In the nanobody polyreactivity screen of Harvey et al. (2022):

Assay: yeast display, Sf9 membrane polyspecificity reagent, FACS + sequencing; frameworks hold sequencing errors
Procedure, shortened: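 A nanobody's polyreactivity label depends on the gate it was sorted from. Yeast display cells were stained with 10% biotinylated, detergent-solubilized Sf9 membrane reagent for 1 hour at 4 °C, enriched on streptavidin microbeads and sorted by FACS. The low and high (top ~1%) gates were set on anti-HA fluorescence for expression and streptavidin fluorescence for reagent binding.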

Sequence	polyreactivity (PSR sort gate)
QVQLVESGGGLVQAGGSLRLSCAASGSTFRWYAMGWYRQAPGKERELVAAITSGGSTNYADSVKGRFTISRDNAKNTVYLQMNSLKPEDTAVYYCNKVYPVVRYEPQYDYWGQGTQVTVSS	low polyreactivity
QVQLVESGGGLVQAGGSLRLSCAASGSTFRYNAMGWYRQAPGKARELVAAITSGGGTNYADSVKGRFTISRDNAKNTVYLQMNSLNPEDTAVYYCAAPWGLGSELLKRDYWGQGTQVTVSS	low polyreactivity
QVQLVESGGGLVQAGGSLRLSCAASGSTFRYNAMGWYRQAPGKERELFAAISFSGGSTYYADSVKGRFTISRDNAKNTVYLQMNSLKPEDTAVYYCAARWSSWPSYLAVPRLYYWGQGTQVTVSS	high polyreactivity
QVQLVESGGGLVQAGGSLRLSCAASGSTFRYNAMGWYRQAPGKERELVAAISRIGGTTYADSVKGRFTISRDNAKNTVYLQMNSLKPEDTAVYYCARANWGYYGPEYGYWGQGTQVTVSS	low polyreactivity
QVQLVESGGGLVQAGGSLRLSCAASGSTFRYNAMGWYRQAPGKERELVAAITSGGRTTYADSVKGRFTISRDNAKNPVYLQMNSLKPEDTAVYYCAARRYGRNWHYDYWGHGTQVTVSS	high polyreactivity
QVQLVESGGGLVQAGGSLRLSCAASGSTFRYNAMGWYRQAPGKERELVAAITSGGTTNYADSVKGRFTISRDNAKNTVYLQMNSLKPEDTAVYYCNAYVAYWGWVYRVDYWGQGTQVTVSS	low polyreactivity
QVQLVESGGGLVQAGGSLRLSCAASGSTFRYNAMGWYRQAPGKERELVAGISYRGGTTYYADSVKGRFTISRDNAKNTVYLQMNSLKPEDTAVYYCAAAASSPGGWFYYWGQGTQVTVSS	high polyreactivity
QVQLVESGGGLVQAGGSLRLSCAASGSTFRYYAMGWYRQAPGKERELVAAISGSGGRTYYADSVKGRFTISRDNAKNTVYLQMNSLKPEDTAVYYCAASRYQFYWGQGTQVTVSS	high polyreactivity
QVQLVESGGGLVQAGGSLRLSCAASGSTFRYYAMGWYRQAPGKERELVAAISRSGGRTYYADSVKGRYTISRDYAKKTVYLQMNSLKPEDTAVYYCAVDIVSIRGYTYGYWGQGTQVTVSS	high polyreactivity
QVQLVESGGGLVQAGGSLRLSCAASGSTFRYYAMGWYRQAPGKERELVAAISWGAGSTYYADSVKGRFTISRDNAKNTVYLQMNSLKPEDTAVYYCNTLQITGWYDYWGQGTQVTVSS	high polyreactivity
QVQLVESGGGLVQAGGSLRLSCAASGSTFRYYAMGWYRQAPGKERELVAAITFDGGTTSYADSVKGRFTISRDNAKNTVYLQMNSLKPEDTAVYYCAREGRTYWSKSISPYWRYGYWGQGTQVTVSS	high polyreactivity
QVQLVESGGGLVQAGGSLRLSCAASGSTFRYYAMGWYRQAPGKERELVAAITTSGSRTYYADSVKGRFTISRDNAKNTVYLQMNSLKPEDTAVYYCAKDGWRYSQSLDWYRFGYWGQGTQVTVSS	high polyreactivity
QVQLVESGGGLVQAGGSLRLSCAASGSTFRYYAMGWYRQAPGKERELVARISWRGGSTYYADSVKGRFTISRDNAKNTVYLQMNRLKPEDTAVYYCAAVRWVRYRTSAYEYWGQGTLVTVSS	high polyreactivity
QVQLVESGGGLVQAGGSLRLSCAASGSTFRYYAMGWYRQAPGKVRELVAAITSSGTSTYYADSVTGRFTISRDNAKNTVYLQKNSLKPEDTAVYYCAAPPVYKWVSSRYDYWGQGTQVTVSS	low polyreactivity
QVQLVESGGGLVQAGGSLRLSCAASGSTFSANTMGWYRPAPGKERELLAAISSSGVGTRYADSVKGRFTISRDTAKNNVYLQMKSLKPEDTAVYYCAADYRPTVITRNDYWGQGTQVTVSS	low polyreactivity
QVQLVESGGGLVQAGGSLRLSCAASGSTFSAYAMGWYRQAPGKERELVAAITRSGGSTYYADSVKGRFTISRDNAKNTVYLQMNSLKPEDTAVYYCAVRGYLLYYPPYKYEYWGQGTQVTVSS	high polyreactivity
QVQLVESGGGLVQAGGSLRLSCAASGSTFSDYAMGWYRQAPGKERELVAGITGGGGTYYADSVKGRFTISRDNAKNTVYLQMNSLKPEDTAVYYCAAGRRHGFGYWGQGTQVTVSS	low polyreactivity
QVQLVESGGGLVQAGGSLRLSCAASGSTFSEYAMGWYRQAPGKERELVAAISETGGRTYYADSVKGRFTISRDNAKNTVYLQMNSLKPEDTAVYYCAVDHLTRSGDGEYWGQGTQVTVSS	high polyreactivity
QVQLVESGGGLVQAGGSLRLSCAASGSTFSFNAMGWYRQAPGKERELVAAITGGDGTNYADSVKGRFTISRDNAKNTVYLQMNILKPEDTAVYYCAAYQWGSTEDYWFTYGYWGQGTQVTVSS	low polyreactivity
QVQLVESGGGLVQAGGSLRLSCAASGSTFSFNDMGWYRQAPGKERELVADISWSGDTTYADSVKGRFTISRDNAKNTVYLQMNSLKPEDTAVYYCNAEGFSIAFYANWVVQWEFDFWGQGTQVSVSS	high polyreactivity
QVQLVESGGGLVQAGGSLRLSCAASGSTFSFYAMGWDRQAPGKERELVAAIRAGTRTYYADSVKGRFTISRDNAKNTVYLQMNSLKPEDTAVYYCAATRRRYPYYYWGQGTLVTVSS	high polyreactivity
QVQLVESGGGLVQAGGSLRLSCAASGSTFSFYDMGWYRQAPGKETELVDAITGSGGTTYYADSVKGRFTISRDNAKNTVYLKMNSLIPEDTAVYFCAADSLESYPDYEYDYWGQGTQVTVSS	low polyreactivity

Sequence	polyreactivity (PSR sort gate)
QVQLVESGGGLVQAGGSLRLSCAASGSTFSGNVMGWYRQAPGKERALVAAIRRSSGSTYYADSVKGRFTISRDNAKNTVYLQMNSLKPEDTAVYYCATDVTKIRQGDYYYWGQGTQVTVSS	high polyreactivity
QVQLVESGGGLVQAGGSLRLSCAASGSTFSGYAMGGYRQAPGKERELVAAISSSGGSTSYADSVKGRFTISRDNAKNTVYLQMNSLKPEDTAVYYCAARAKGYAHIRAYDYWGQGTQVTVSS	low polyreactivity
QVQLVESGGGLVQAGGSLRLSCAASGSTFSGYAMGWSRQAPGKERELVASITSSGGSTYYADSVKGRFTISRDNAKNTVYLQMNSLKPEDTAVYYCAAAKSAMWGQGTQVTVSS	low polyreactivity
QVQLVESGGGLVQAGGSLRLSCAASGSTFSGYDRGWYRQEPGKESEFVATITYSGGSTYYADSVKGRFTISRDNAKNTVYLQMNSLKPEDTAVYYCAADTPDAPDYSGLYYWGQGTQVTVSS	low polyreactivity
QVQLVESGGGLVQAGGSLRLSCAASGSTFSGYVMGWYRQAPGKERELVAAITGRGGNTYYADSVKGRFTISRDNGKNTVYLQMNSLKPEDTAVYYCAAARRSYQYGYWGQGTQVTVSS	high polyreactivity
QVQLVESGGGLVQAGGSLRLSCAASGSTFSHYTMGWYRQAPGKERELVAAITRSGGSTYYADSVKARFTISRDNAKNNVYLQMTSLNPEDSAVYYCAATRQWNILRYDYWGQGTLVTVSS	low polyreactivity
QVQLVESGGGLVQAGGSLRLSCAASGSTFSHYTMGWYRQAPGKERQLVAAINYGGASTYDADSVKGRFTISRDNAKNTVYLQMNSLKPEDTAVYYCAAAYRPSEQYNYWGQGTQVTVSS	low polyreactivity
QVQLVESGGGLVQAGGSLRLSCAASGSTFSINAMGWYRPAPGKERELVAAITWRGTRTYYADSVKGRFTISRDNAKNTVYLQMNSLKPEDTAVYYCAATGSGQSSYYYWGQGTQVTVSS	high polyreactivity
QVQLVESGGGLVQAGGSLRLSCAASGSTFSIYAMGWYRQAPGKERELVAAISFSDDSTYYADSVKGRFTISRDNAKNTVYLQMNSLKPEDTAVYYCAAEGYWGQPFDYDGALEYWGQGTQVTVSS	high polyreactivity
QVQLVESGGGLVQAGGSLRLSCAASGSTFSIYAMGWYRQAPGKERELVAAISGSGSRTYYADSVKGRFTISRDNAKNTVYLQMNSLKPEDTAVYYCAARGRHRDGFDFNYWGQGTQVTVSS	high polyreactivity
QVQLVESGGGLVQAGGSLRLSCAASGSTFSKYAMGWYRQAPGKERELVAAITRTTGRTYYADSVKGRFSISRDNAKNTVYLHMNSLKPEDTAVDYCAARSPYYRAYKYDYWGQGTQVTVSS	high polyreactivity
QVQLVESGGGLVQAGGSLRLSCAASGSTFSLNDMGWYRQAPGKERQLVAAITGRGTRTYYADSVKGRFTISRDNAKNNVYLQMNSLKPEDTAVYYCAIDYPRGSPYGYNYWVQGTQVTVSS	high polyreactivity
QVQLVESGGGLVQAGGSLRLSCAASGSTFSLYAMGWYRQAPGKERELVAAITRSGGGTHYADSVKGRFTISRDNAKNTVYLQMNSLKPEDTAVYYCAKRQSGYRYDYWGQGTEVTVSS	low polyreactivity
QVQLVESGGGLVQAGGSLRLSCAASGSTFSNNAMGWYRQAPGKERELVASTNYADSVKGRFTISRDNEKNTVYLQMNSLKPEDTAVYYCAAGAYPSWGLDFWGQGTQVTVSS	low polyreactivity
QVQLVESGGGLVQAGGSLRLSCAASGSTFSNYAMGGYRQAPGKERELVAAITSGGTTNYADSVKGRFTISRDNAKNTVYLQMNSLKPEDTAVYYCAKRYSYHVPTHIWVEYYYWGQGTQVTVSS	low polyreactivity
QVQLVESGGGLVQAGGSLRLSCAASGSTFSPYAMGWYRHAPGKERELVAAITSGGGSTYYADSVKGRFTISRDNAKNTVYLQMNSLKPEDTAVYYCNAYLYYLGGPYDYWGQGTQVTVSS	high polyreactivity
QVQLVESGGGLVQAGGSLRLSCAASGSTFSPYAMGWYRQAPGKERELVAAINYSSGSTYYADSVKGRFTISRDNAKNTVYLQMNSLKPEDTAVYYCANGWYAGYPYDYWGQGTQVTVSS	low polyreactivity
QVQLVESGGGLVQAGGSLRLSCAASGSTFSPYAMGWYRQAPGKERELVADISWPGGTTYYADSVKGRFTISRDNAKNTVYLQMNSLKPEVTAVYYCAVTYWDYTFQITYEYWGQGTQVTVSS	low polyreactivity
QVQLVESGGGLVQAGGSLRLSCAASGSTFSPYAMGWYRQAPGKERELVAGISRGTSTNYADSVKGRFTISRDNAKNTVYLQMNSLKPVDTAVYYCAARAYHRYLPGYRVRFGDYYYWGQGTQVTVSS	high polyreactivity
QVQLVESGGGLVQAGGSLRLSCAASGSTFSPYAMVWYRQEPGKERELVAAITWSGGSTYYADSVKGRFTISRDNAKNSVYLQMNSLKPEDTAVYYCNAVPYLSIEYDYWGQGTQVTVSS	high polyreactivity
QVQLVESGGGLVQAGGSLRLSCAASGSTFSQYAMGWYRQAPGKETELVAVITRSGGSTYYADSVKGRFTISRDNAKNTVYLQMNSLKPEDTAVYYCAARSGRYKGDYWGQGTQVTVSS	low polyreactivity
